# Experimental data published in article PMC5501646.
# pKd: −log10 of the molar value.
# What was measured:
# [1] = target: HfqPae (wild type) (Pseudomonas aeruginosa PAO1) (UniProt Q9HUM0); assay: EMSA; conditions: MST: 10 mM Tris pH 8.0, 40 mM NaCl, 10 mM KCl, 1 mM MgCl2, 0.05% Tween, 25 C; EMSA: 10 mM Tris-HCl pH 8.0, 10 mM MgCl2, 60 mM NaCl, 10 mM NaH2PO4, 10 mM DTT …
# [2] = target: HfqPae (wild type) (Pseudomonas aeruginosa PAO1) (UniProt Q9HUM0); assay: MST; conditions: MST: 10 mM Tris pH 8.0, 40 mM NaCl, 10 mM KCl, 1 mM MgCl2, 0.05% Tween, 25 C; EMSA: 10 mM Tris-HCl pH 8.0, 10 mM MgCl2, 60 mM NaCl, 10 mM NaH2PO4, 10 mM DTT …
# [3] = target: HfqPaeY25DFlag Y25D (Pseudomonas aeruginosa PAO1) (UniProt Q9HUM0); assay: EMSA; conditions: MST: 10 mM Tris pH 8.0, 40 mM NaCl, 10 mM KCl, 1 mM MgCl2, 0.05% Tween, 25 C; EMSA: 10 mM Tris-HCl pH 8.0, 10 mM MgCl2, 60 mM NaCl, 10 mM NaH2PO4, 10 mM DTT …
# [4] = test system: HfqPae (wild type) (Pseudomonas aeruginosa PAO1); assay: MST; conditions: 1 mM Mg2+, 25 C, MST: 10 mM Tris pH 8.0, 40 mM NaCl, 10 mM KCl, 1 mM MgCl2, 0.05% Tween, EMSA: 10 mM Tris-HCl pH 8.0, 10 mM MgCl2, 60 mM NaCl, 10 mM NaH2PO4, 10 mM DTT …
substance,measurement,setting,value
GGACUGGUCGCGAGGCCAGCAGGUAAGCUGAGAGACCAAGCAGUCGGACUCUUCAGAUUAUCUCCUCAUCAGGCUAAUCACGGUUUCGACCCGGCACUUUGCCGGGUCUUUUUUUG [PrrF2 sRNA],binding,[1],binds
GGGAGCCGGCCUUGCGCCGGCAUAUGCCUUGCAUUUUGCUGAAAACAGAGCGCCAGCAGAGCGCACCCCCAGCCUUGCCGUGUCGAGUGCCGAACCAUGAUGAGGACCCAUCCCGUCGCCGAUCGUGGCGAUCUCCAUGCCGACCACCUGGACCUGGCCGCCG [antR(-95-+67) mRNA fragment],pKd,[2],7.43
same,binding,[3],no binding
antR(-95-+67) mRNA fragment,pKd,[4]; 20 nM labelled Hfq,7.43
CrcZ RNA,pKd,[4]; 30 nM labelled Hfq,8.13
